In article PMC12022045 (Nature Communications, 2025):
Values belong to the binder of their own block, whether it stands above or below them.

Key:
[1] = biological target: T1, TAFH (human, UniProt O00268 582-678); assay: NMR titration
T1 sequence (looked up): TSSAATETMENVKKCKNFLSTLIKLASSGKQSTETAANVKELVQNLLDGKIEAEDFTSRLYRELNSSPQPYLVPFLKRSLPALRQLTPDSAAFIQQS

[2] = biological target: T2, MED15-ABD3 (human, UniProt Q96RN5-2 453-561); assay: SPR
T2 sequence (looked up): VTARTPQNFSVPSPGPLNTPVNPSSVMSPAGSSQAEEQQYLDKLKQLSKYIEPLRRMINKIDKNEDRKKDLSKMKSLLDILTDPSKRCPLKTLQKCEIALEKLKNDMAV

[3] = biological target: T2, MED15-ABD3; assay: NMR titration

binding result [1]: binds
Binder: SDILNDMESVLAATK [α-helix-based peptide SDILNDMESVLAATK]

Kd [2]: 160 ± 54.3 nM
B1: YAP-TAD (domain or fragment, human, UniProt P46937 450-504, looked up)
chain: GTNVDLGTLEGDGMNIEGEELMPSLQEALSSDILNDMESVLAATKLDKESFLTWL

binding result [1]: binds
binding result [3]: binds
Binder: FLTWL [FLTWL pentapeptide]
